Biological target: LcrG, full length (Yersinia pseudotuberculosis) (UniProt P69958)
Assay: ITC

Chain of LcrV, full length (P23994 whole entry): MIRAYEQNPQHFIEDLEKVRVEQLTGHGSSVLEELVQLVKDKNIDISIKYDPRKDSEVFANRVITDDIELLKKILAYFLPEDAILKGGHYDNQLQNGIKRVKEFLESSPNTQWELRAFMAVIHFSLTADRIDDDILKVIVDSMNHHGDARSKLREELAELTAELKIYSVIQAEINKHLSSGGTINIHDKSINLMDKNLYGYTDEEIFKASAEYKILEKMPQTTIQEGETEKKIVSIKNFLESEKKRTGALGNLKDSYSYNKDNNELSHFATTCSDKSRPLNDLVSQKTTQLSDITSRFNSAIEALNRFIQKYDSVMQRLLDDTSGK
Chain of LcrG, full length (Yersinia pseudotuberculosis) (P69958 whole entry): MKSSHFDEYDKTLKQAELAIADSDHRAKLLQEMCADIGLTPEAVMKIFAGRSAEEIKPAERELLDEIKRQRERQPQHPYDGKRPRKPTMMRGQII

LcrV, full length (from UniProt P23994 1-326) (natural protein)
stoichiometry N: 1

From paper PMC12720783
